Assay [1] concerns the target T1, human TIM-3 extracellular domain-human IgG1 Fc fusion protein (human, UniProt Q8TDQ0 22-199).
T1 construct: Made in house or bought (ACROBiosystems TM3-H5258); also called TIM-3-hFc; not shown: human IgG1 Fc
The experiment in a line: ELISA.

In assay [2] the target is T2, human PD-1 extracellular domain protein expressed in Example 1 (tag not stated) (human, UniProt Q15116 25-170).
T2 construct: extracellular domain; also called PD-1 protein; not shown: human IgG1 Fc or his tag
The experiment in a line: ELISA, PD-1 coated. On the procedure: (§1) PD-1 expressed in Example 1 was diluted to a concentration of 1 μg/ml with PBS buffer, pH 7.4, and added to a 96-well microplate (Corning, CLS3590-100EA) at 50 μl per well, thereby incubating in an incubator at 37° C. for 2 hours. After discarding the liquid, a blocking solution of 5% skimmed milk (Shanghai Shenggong Biological Engineering Co., Ltd., A600669-0250) diluted with PBS was added at 200 μl per well, followed by incubating at 37° C. for 3 hours or 4° C. overnight (16-18 hours)) for blocking. Subsequently, the blocking solution was discarded, and the microplate was washed 5 times with PBST buffer (pH 7.4 PBS containing 0.05% tween-20). […] Subsequently, the microplate was washed 5 times with PBST, then 50 μl/well of 1:2500 diluted HRP-labeled secondary antibody (Jackson Immuno Research, 115-035-003) was added, thereby incubating at 37° C. for 1 hour. After washing the microplate 5 times with PBST, 50 μl/well TMB chromogenic substrate (KPL, 52-00-03) was added, then incubated at room temperature for 5-10 min. Finally, 50 μl/well of 1M H₂SO₄ was added to stop the reaction. […] Go microplate reader (ThermoFisher, 51119200) was used to read the absorption value at 450 nm and the EC50 based on the OD value was calculated.
The TIM-3 and PD-1 bispecific antibodies of the present invention were tested for their affinity for TIM-3 and PD-1 using the methods in Example 3 and Example 5, respectively.

Assay [3] concerns the target T1, human TIM-3 extracellular domain-human …. The experiment in a line: ELISA. On the procedure:
Goat-anti-hFc (Jackson, 109-005-008) was diluted to a concentration of 1 μg/ml with PBS buffer (pH 7.4) and added to a 96-well microplate (Corning, CLS3590-100EA) at a volume of 50 μl/well, then incubated in an incubator at 37° C. for 2 hours (Or the antigen TIM-3 was directly used to coat the microplate with a concentration of 0.5 μg/ml, and then the antibody to be tested was directly added). After discarding the liquid, a blocking solution of 5% skimmed milk (skimmed milk powder purchased from Bright) diluted with PBS was added at 200 μl per well, and the microplate was incubated for 2.5 hours at 37° C. or overnight (16-18 hours) at 4° C. for blocking. The blocking solution was discarded, and the microplate was washed 5 times with PBST buffer (PBS with pH 7.4 containing 0.05% tween-20), then 50 μl/well of 0.5 μg/ml TIM-3-hFc (Example 1) was added and incubated for 2 hours in a 37° C. incubator. After incubation, the microplate was washed 6 times with PB ST. 50 μl/well of supernatant (containing testing antibody) or different concentrations of the antibody to be tested was added, and the microplate was incubated at 37° C. for 2 hours and washed 5 times with PBST. 50 μl/well of 1:2500 diluted HRP-labeled secondary antibody (Jackson Immuno Research, 115-035-003) was added to the microplate, incubating at 37° C. for 1 hour. After washing the microplate 5 times with PBST, 50 μl/well TMB chromogenic substrate (KPL, 52-00-03) was added to the microplate, followed by incubating at room temperature for 10-15 min.
(§2) The above-mentioned TIM-3 and PD-1 bispecific antibodies of the present invention were optimized and designed using the methods of Example 2 and Example 5, and their affinity for TIM-3 and PD-1 were tested respectively.
This is another data set of the same source.

Assay [4] concerns the target T2, human PD-1 extracellular domain protein …. The experiment in a line: ELISA, PD-1 coated. The method, then: as §1, §2
The source holds these as a separate data set.

Assay [5] has the same target. The experiment in a line: blocking ELISA, PD-1 coated, competitor biotin-labeled PD-L1.
A further assay has as its target T3, Marmoset TIM-3 (Marmoset, UniProt F7I881 21-290).
T3 sequence: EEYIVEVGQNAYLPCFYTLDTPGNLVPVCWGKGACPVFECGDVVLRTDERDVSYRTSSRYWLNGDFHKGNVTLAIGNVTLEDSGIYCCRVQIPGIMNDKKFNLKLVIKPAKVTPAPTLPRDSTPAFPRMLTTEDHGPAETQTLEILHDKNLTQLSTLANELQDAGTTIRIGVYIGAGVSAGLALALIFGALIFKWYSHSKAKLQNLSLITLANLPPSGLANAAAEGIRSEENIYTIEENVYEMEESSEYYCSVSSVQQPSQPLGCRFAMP
The experiment in a line: ELISA.

The target of assay [6] is T4, human TIM-3 extracellular domain-his tag protein (human, UniProt Q8TDQ0 22-199).
T4 construct: Made in house or bought (ACROBiosystems TM3-H5229); also called TIM-3-his; Human Tim3-his; not shown: his tag
The experiment in a line: ELISA, human TIM-3-his.

Assay [7] has as its target T1, human TIM-3 extracellular domain-human …. The experiment in a line: ELISA. This is another data set of the same source.
The target in assay [8] is T4, human TIM-3 extracellular domain-his …. The experiment in a line: SPR Biacore, antibody captured on Protein A, TIM-3-his in flow. The method, then: First, Protein A (Thermo Pierce, Cat #21181) was conjugated to the biosensing chip CMS (Cat. #BR-1005-30, GE), and the chip was activated with the newly prepared 50 mM NHS (N-hydroxysuccinimide) and 200 mM EDC [1-ethyl-3-(3-dimethylaminopropyl) carbodiimide hydrochloride], then 10 μg/ml Protein A prepared with 10 mM NaAC (pH 4.0) was injected. […] The flow rate was 30 μl/min, the binding time was 180 seconds and the dissociation time is 300 seconds. Subsequently, the chip was washed for 30s with 10 mM Glycine-HCl (pH 1.5) at 30 μl/min. The data were fitted with a 1:1 Langmuir model using the software of Biacore T200 evaluation version 3.0 (GE), and the affinity value KD was obtained.

Assay [9] has as its target T1, human TIM-3 extracellular domain-human …. The experiment in a line: ELISA on human TIM-3, OD450 against Log[nM] of antibody.

Numbering of substitutions follows the chain as printed. Numbers in names are those of the source. Read-outs that look alike come from different tables or passages of the source.

Consider seven molecules from patent US20210269521A1 (L AND L BIOPHARMA, published 2021).

B1: bispecific antibody LB129 (bispecific antibody, human IgG4 S228P, kappa)
light: DIQMTQSPSSLSASVGDRVTITCRASENIYSYLTWYQQKPGKAPKLLIYNAKTLAEGVPSRFSGSGSGTDFTLTISSLQPEDFATYYCQQHYGTPLTFGQGTKLEIKRTVAAPSVFIFPPEIVLTQSPATLSLSPGERATISCRASKGVSTSGYSYLHWYQQKPGQAPRLLIYLASYLESGVPARFSGSGSGTDFTLTISSLEPEDFATYYCQHSRELPLTFGTGTKVEIKRTVAAPSVFIFPPSDEQLKSGTASVVCLLNNFYPREAKVQWKVDNALQSGNSQESVTEQDSKDSTYSLSSTLTLSKADYEKHKVYACEVTHQGLSSPVTKSFNRGEC
heavy: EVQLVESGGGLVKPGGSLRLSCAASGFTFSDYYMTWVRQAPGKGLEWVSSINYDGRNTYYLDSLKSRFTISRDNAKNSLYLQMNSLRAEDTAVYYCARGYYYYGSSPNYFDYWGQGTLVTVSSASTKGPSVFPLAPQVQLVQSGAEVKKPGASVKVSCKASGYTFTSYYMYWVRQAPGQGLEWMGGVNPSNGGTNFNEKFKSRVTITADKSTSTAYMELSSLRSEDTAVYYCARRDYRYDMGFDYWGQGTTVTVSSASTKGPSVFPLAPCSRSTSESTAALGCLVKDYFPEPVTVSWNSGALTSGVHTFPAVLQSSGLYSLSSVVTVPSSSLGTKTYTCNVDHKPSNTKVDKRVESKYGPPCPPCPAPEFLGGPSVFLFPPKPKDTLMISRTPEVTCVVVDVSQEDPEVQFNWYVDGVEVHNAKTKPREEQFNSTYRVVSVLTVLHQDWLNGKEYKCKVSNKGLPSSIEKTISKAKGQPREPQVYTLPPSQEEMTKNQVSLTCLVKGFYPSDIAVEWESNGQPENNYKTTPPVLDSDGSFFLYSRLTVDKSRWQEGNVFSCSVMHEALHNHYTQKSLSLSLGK
Take B1: the EC50 in assay [1] stood at 0.558 nM; in [2], 0.508 nM.

B2: bispecific antibody LB135 (bispecific antibody, human IgG4 S228P, kappa)
light: EIVLTQSPATLSLSPGERATISCRASKGVSTSGYSYLHWYQQKPGQAPRLLIYLASYLESGVPARFSGSGSGTDFTLTISSLEPEDFATYYCQHSRELPLTFGTGTKVEIKRTVAAPSVFIFPPSDEQLKSGTASVVCLLNNFYPREAKVQWKVDNALQSGNSQESVTEQDSKDSTYSLSSTLTLSKADYEKHKVYACEVTHQGLSSPVTKSFNRGEC
heavy: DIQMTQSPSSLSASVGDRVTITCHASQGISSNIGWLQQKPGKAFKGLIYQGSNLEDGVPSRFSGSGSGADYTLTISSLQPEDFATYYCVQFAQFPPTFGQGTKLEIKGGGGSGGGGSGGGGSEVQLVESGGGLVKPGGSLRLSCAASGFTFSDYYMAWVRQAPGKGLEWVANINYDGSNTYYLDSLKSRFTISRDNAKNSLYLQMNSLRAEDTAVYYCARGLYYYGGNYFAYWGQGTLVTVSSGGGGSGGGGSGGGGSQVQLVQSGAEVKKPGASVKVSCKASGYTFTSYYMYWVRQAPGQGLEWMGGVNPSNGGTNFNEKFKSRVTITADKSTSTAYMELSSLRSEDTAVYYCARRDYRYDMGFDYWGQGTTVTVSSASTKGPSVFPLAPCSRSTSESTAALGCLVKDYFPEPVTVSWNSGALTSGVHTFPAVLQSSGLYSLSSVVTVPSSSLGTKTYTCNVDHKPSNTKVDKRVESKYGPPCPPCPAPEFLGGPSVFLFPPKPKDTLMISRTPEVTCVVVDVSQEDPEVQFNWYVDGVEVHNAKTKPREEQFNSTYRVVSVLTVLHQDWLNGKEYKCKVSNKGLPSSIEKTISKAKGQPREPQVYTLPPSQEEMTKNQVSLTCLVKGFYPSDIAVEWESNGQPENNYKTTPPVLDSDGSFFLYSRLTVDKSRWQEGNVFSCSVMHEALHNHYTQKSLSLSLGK
notes: ab6VL-(G4S)3-ab6VH-(G4S)3-Ba08VH-hIgG4 with Ba08VL-κ
Take B2: the EC50 came to 0.145 nM in assay [3] and 0.082 nM in assay [4]. The IC50 in [5] is 1.49 nM.

B3: bispecific antibody LB143 (bispecific antibody, human IgG4 S228P, kappa)
light: B2 light with I21L, T89V, E97D, T104G
heavy: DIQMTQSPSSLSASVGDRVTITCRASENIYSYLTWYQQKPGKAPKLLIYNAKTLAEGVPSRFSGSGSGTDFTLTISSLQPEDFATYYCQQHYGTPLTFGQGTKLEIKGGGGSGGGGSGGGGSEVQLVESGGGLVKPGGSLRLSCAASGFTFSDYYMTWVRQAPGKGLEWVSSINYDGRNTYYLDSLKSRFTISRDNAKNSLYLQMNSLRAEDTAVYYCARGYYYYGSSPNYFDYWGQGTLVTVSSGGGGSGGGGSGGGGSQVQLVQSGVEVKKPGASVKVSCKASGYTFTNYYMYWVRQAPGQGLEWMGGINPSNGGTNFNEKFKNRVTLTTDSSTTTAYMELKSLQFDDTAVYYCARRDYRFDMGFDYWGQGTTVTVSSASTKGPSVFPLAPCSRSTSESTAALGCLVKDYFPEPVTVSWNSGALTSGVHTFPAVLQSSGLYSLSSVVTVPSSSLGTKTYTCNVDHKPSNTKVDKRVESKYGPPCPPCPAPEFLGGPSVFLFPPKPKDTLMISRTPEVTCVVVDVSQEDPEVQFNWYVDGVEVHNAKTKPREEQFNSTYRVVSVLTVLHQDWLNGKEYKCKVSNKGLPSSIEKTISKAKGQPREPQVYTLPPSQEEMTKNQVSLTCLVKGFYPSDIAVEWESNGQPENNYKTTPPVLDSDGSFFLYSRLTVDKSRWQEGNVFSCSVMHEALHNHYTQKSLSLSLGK
notes: ab32VL-(G4S)3-ab32VH-(G4S)3-PemVH-hIgG4 with PemVL-κ
In the case of B3, the half-maximal effective concentration (EC50) came to 0.14 nM in [3] and 0.064 nM in assay [4]. The IC50 in assay [5] was 1.88 nM.

B4: bispecific antibody LB136 (bispecific antibody, human IgG4 S228P, kappa)
light: B2 light
heavy: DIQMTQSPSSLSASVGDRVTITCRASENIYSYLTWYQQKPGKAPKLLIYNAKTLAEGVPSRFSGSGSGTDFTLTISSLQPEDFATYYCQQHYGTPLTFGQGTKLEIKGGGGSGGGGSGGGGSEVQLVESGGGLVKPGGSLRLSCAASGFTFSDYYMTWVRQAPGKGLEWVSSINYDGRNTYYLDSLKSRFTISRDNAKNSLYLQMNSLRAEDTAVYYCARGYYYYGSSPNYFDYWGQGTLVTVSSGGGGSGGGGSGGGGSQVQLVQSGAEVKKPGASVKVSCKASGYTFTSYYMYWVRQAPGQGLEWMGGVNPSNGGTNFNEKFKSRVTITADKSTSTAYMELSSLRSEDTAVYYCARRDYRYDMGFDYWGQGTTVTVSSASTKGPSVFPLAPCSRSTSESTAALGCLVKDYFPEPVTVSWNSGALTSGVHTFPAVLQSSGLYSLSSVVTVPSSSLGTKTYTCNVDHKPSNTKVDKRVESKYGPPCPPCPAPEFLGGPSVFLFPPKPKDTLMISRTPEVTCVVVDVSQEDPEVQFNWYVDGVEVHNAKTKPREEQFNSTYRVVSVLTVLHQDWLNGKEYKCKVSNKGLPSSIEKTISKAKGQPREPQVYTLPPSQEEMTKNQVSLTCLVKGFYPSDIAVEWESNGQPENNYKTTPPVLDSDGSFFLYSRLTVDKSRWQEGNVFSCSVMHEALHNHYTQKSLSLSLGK
notes: ab32VL-(G4S)3-ab32VH-(G4S)3-Ba08VH-hIgG4 with Ba08VL-κ
B4: the EC50 in assay [3] amounted to 0.178 nM; in assay [4] it was 0.065 nM. The molecule also had an IC50 in [5] of 1 nM.

B5: Tim3-0028 (antibody of US20170114135A1) (antibody, V domains shown)
VH: EVQLQQSVAELVRPGASVKLSCTASGFNIKTTYMHWVKQRPEQGLEWIGRIDPADDNTKYAPKFQGKATITADTSSNTAYLQLSSLTSEDAAIYYCVRDFGYVAWFAYWGQGTLVTFSA
VL: NIVMTPTPKFLPVSSGDRVTMTCRASQSVDNYVAWYQQKPGQSPKLLIYYASNRYIGVPDRFTGSGSGTDFTFTISSVQVEDLAVYFCQQHYSSPYTFGSGTKLEIK
As to B5, it took 36.2 nM to reach a half-maximal effect in the assay with Marmoset TIM-3 (EC50).

B6: humanized anti-TIM-3 antibody ab6 (antibody, IgG4, V domains shown)
VH: EVQLVESGGGLVKPGGSLRLSCAASGFTFSDYYMAWVRQAPGKGLEWVANINYDGSNTYYLDSLKSRFTISRDNAKNSLYLQMNSLRAEDTAVYYCARGLYYYGGNYFAYWGQGTLVTVSS
VL: DIQMTQSPSSLSASVGDRVTITCHASQGISSNIGWLQQKPGKAFKGLIYQGSNLEDGVPSRFSGSGSGADYTLTISSLQPEDFATYYCVQFAQFPPTFGQGTKLEIK
notes: also called ab6 intact antibody
For the molecule B6, the EC50 in assay [3] stood at 0.087 nM; in assay [6], 0.11 nM; in assay [1] it was 0.095 nM; in assay [7] it was 0.084 nM. The Kd in assay [8] amounted to 2.83 nM. This molecule also yielded a koff in [8] of 0.00235 s⁻¹. Further, the kon in assay [8] came to 834000 M⁻¹ s⁻¹.

B7: humanized anti-TIM-3 antibody ab32 (antibody, IgG4, V domains shown)
VH: EVQLVESGGGLVKPGGSLRLSCAASGFTFSDYYMTWVRQAPGKGLEWVSSINYDGRNTYYLDSLKSRFTISRDNAKNSLYLQMNSLRAEDTAVYYCARGYYYYGSSPNYFDYWGQGTLVTVSS
VL: DIQMTQSPSSLSASVGDRVTITCRASENIYSYLTWYQQKPGKAPKLLIYNAKTLAEGVPSRFSGSGSGTDFTLTISSLQPEDFATYYCQQHYGTPLTFGQGTKLEIK
notes: also called ab32 intact antibody
Turning to B7, in assay [3], a half-maximal response (EC50) required 0.036 nM. Further, the “EC50 (read off the curve)” value in assay [9] is approximately 0.2 nM. The molecule further registered an EC50 in assay [7] of 0.09 nM. Moreover, in assay [8], binding was put at a Kd of 1.18 nM, the koff amounted to 0.000296 s⁻¹ and the kon stood at 251000 M⁻¹ s⁻¹.
